Assay results: the DeepSol protein solubility set

experiment: soluble on expression in E. coli; label from the status in PepcDB or PDB records

Soluble on expression in E. coli, not soluble:
MGSDKIHHHHHHLTWPEASKAASENGSTLVWPFGACEQHGPHLPLITDTFFAENILIKTLNRLPENMPIWMMPSQSIGFSPEHQAFPGTLSLSADVLISMVTDVGQQIASMGFNRLVFFNAHGGQIGLLQAVSRQLRIQCPSIAVLPCFLWSGVPGLDQLLPEKEVEEGLHAALAETSLMLHMARDLVRNDSYLEIKNVDKQIVTTPKGWSLEGASPCAWLTEDLSSSGVIGDASSSNSELGAALENALVDHWIALFTSLLESDWPPIRSERPVSSS, MGHHHHHHSHMVGWQEGANHKNGAGRSQKQEMAEKMVPEVASGEEIGGRSEAGRESPDLFRPNTVEARDRPAGPPFSKSASVRVLQRSRTNRDYIPIEHIQSPIGIYNML, MVKRANTFAMRPLTADDEQVLRDLLDASAALWNEINYQRLMRYNDKDGFEDEDVWDADTGALEGKYKAVLGASTAQTVRRANTEAWRSFFRLKKQFHDESNTSVTEHPEPPGFRGNKDDGRVLKGVVRKDAYSVEWGDRSRLEMVVGEQLRDRHNSPKSRLRLEIVGDPNWSDYEDQGRLELWYDETDCTFRASQPVTVSDDARATPLANEKAALDIGANNLVACTTTTGQQYLYEGRELFQRFRETTREIARLQSKLPEGRYSSKRIRRLYRKRTRRRDHAQETLCRDLLEQLYGEGVDTVYIGGLTDVLETHWSAETNAKTHNFWAFKQFTERLAWTADEYGISVEVRSEAWTSQECPQCGSTDRTTRQQDTLTCPCGFEGHADVTASETFLERHTEKAVRPMARPVRFEWDDHEWSESPRSPARESPKEQRTDPSTVPRDGNVVSGDSLEHHHHHH, MGSDKIHHHHHHMSNDETVEKVTQQVSELKSTDVKEQVVTPWDVEGGVDEQGRAQNIDYDKLIKQFGTKPVNEETLKRFKQVTGREPHHFLRKGLFFSERDFTKILDLYEQGKPFFLYTGRGPSSDSMHLGHMIPFVFTKWLQEVFDVPLVIELTDDEKFLFKHKLTINDVKNFARENAKDIIAVGFDPKNTFIFSDLQYMGGAFYETVVRVSRQITGSTAKAVFGFNDSDCIGKFHFASIQIATAFPSSFPNVLGLPDKTPCLIPCAIDQDPYFRVCRDVADKLKYSKPALLHSRFFPALQGSTTKMSASDDTTAIFMTDTPKQIQKKINKYAFSGGQVSADLHRELGGNPDVDVAYQYLSFFKDDDVFLKECYDKYKSGELLSGEMKKLCIETLQEFVKAFQERRAQVDEETLDKFMVPHKLVWGEKERLVAPKPKTKQEKK, MGSDKIHHHHHHMTPSIPPEVAQHLGYYVYLYVDPRTEQVFYVGKGQGQRVLSHLSAEGESRKAQILAELRQAQLSPRLDILAHGLPDEATAYRIEAAAIDLLGLDSLSNLVRGWQSVRSGRRSLEELVTYYAAPPAVITDPVMLIRSNRLYWHGMPAQELYEATRGVWKVAKWRQQEVKYALAVFEGVVREVYTIESWHPAGQTPYQTRLAEAVNDPQRWEFVGHVAPEEVRNRYLYHSVTASFARNAQNPIAYPPVT, MGSDKIHHHHHHVKQRVAVIGAGPGGLACAMLLAGRGIDVTVYEKQPIVGGRTSRVQVGDYQFDRGPTFLNMPHILENLFTSIDLDMKDYLDLKALDPMYTLYFNGGKDHFTMTTDRDRMKQTIEQHFPGNGEGYDRFMAEQALKLAKLMPILQTKHDKLTDYLSPRVITALPRLSLGRSLYDVLSDYFTSEELKYAFTFQAKYLGMSAWECPGGFSILSYMEHAYGVHHPIGGMNQIPEAMKRAVEELGGTVHLNTGISQLILDGTTATGVILESGEHVLYDDVVVGADFAHAMNHLVPEGVLKKWSRPKIDRKKFSCSTFMLYLGVNKSFDAPHHTIYFADDYEKNVREMTQTLELSDDFSFYVQNPSIIDSTLAPEGKSSLYVLVPVPNNYSELDWAIEGPKLRRRVLDALEHRSPYTGVEAAIEVEEMFTPDDWEAMGVHQGATFNLGHQLTQMMYFRPHNRFEELEHVYLVGGGTHPGSGLPTIFESARITADLLTSEVGVGK, GKVNIIVPQYVRCPDICHYETLIMKSLMIKLFQENSLDDVVFVTVEVDPWRGSLEEADMYIKESTASLGFTPPWIWVGGNMEPLETLYKQLGLSVQLDSSTGLIVHTAGFYIVDRNGILLYYVKVEDEGWKNPGKVADVLEYVVNDALSK, MCDKLGGVAIAVQGALFEHNERRQLGDGAFIDIRSGWLTGGEELLDALLSTVPWRAERRQMYDRVVDVPRLVSFHDLTIEDPPHPQLARMRRRLNDIYGGELGEPFTTAGLCYYRDGSDSVAWHGDTIGRGSTEDTMVAIVSLGATRVFALRPRGRGPSLRLPLAHGDLLVMGGSCQRTFEHAVPKTSAPTGPRVSIQFRPRDVR, MGSDKIHHHHHHMNSTTKSKEFEQHYSGTLSDYVTAIAWSPQGKTLAATSAAGEVVLWNDGELTTLQTGNGKSVDCLAFSPDGKFLAVGGQDGQVKIWQNTELIATLENAPAWVDKLAWNYTSNQLAFSLGRYVQVWDVDTHEIVVTLNFDNSSVLGIDWRIDGQYLAISGYKGVKIWHSQNWDEEPYSLDMTTVSLAMAWSPDGKFLASGNMDRSVTVLEWNNPDPWVMRGFPGKIRQLAWSEAMTKVGAPILASSSVEGIVVWEKLEDDTLGWEARVLTNHVGTINAIAFAPKSFLLASAAADGWLCLWNQAKEVSQIITGVSGGFSTLAWHPQGKLLAAGGEQGELVIWSKVLRGQGFGRS, MKIAYFSDTYYPTPDGVSTYLKDVKRGLEKRGHEVYIFSLTGDPHEKNVFIPRTVPFPPYDQYRMPLIPFPFREFKTAVDIMPDVIHLHNAFYMSSVGYLVARRLGKKPISTFHTDIDKMRESIRLPFSDLIFDLGKRYSIYLYRKCKFVLAPSCQVKAYLERCGLKNIVTVPLFVDTDELSPAKASNKQDIILYLGRLTKDKGVYRVLELANEMKGTGYKFIIAGVGPELERMKAYVKENDISNVNILGYVKEDEKKQLMEVSKFFIYPSSADTFGISVFEALSMGLPAIVSKEFPVKEDTNAIVYEDFSNIKHIANKLLNIDQATYSEMSTSARTLAISKYSIDRHIDQLLSLYMSLVDHLEHHHHHH

Soluble on expression in E. coli, soluble:
MFSPLGQFKHIVCPFLRTGRKCQSRNCFFSHDFQNSTKISPPYSENVEGYPKVKIEKSLPYKYDNCKLSICVPIVTTCIPYHSVENLNFNIRQNISTTLNLEKTNDSIKETKNENFRMDVLETYKCKQLNHQTTHLPTNTVLKKRSLFNDAISIVPNKKKQLVSAISTNSDSQGASSNIIPTPKYDSNSPAGHELRKRMTHLLYESYKDLGYSNAESSMLALLDEKNICETANSKMIYSSSCKSKILSLKKAPKKNEIQGSTPDEKLESLVHSEEELILWGYNIGDVAPVNPPDELRECDRCGTRFADPRGPCTYHWGKLFREKQGGEKIRTYTCCGVKEGDSSGCIIEDNHVFKYRHLPYLASVHPFSYLPDSTNSKQLSHCALDCELCYTTNGMELARLTVVAKESIIMDVFIKPKGKILSLNTRFSGIHDAKELESGITMDQMYIKIKELGMNKNTILIGHGLENDLNAMRLIHKRVIDTALLFTHARGPPFRYSLKYLTKKYLGTTIQTSTHDSEEDAVSALQLVFYKTKSNESQN, GWSFEEQFKQVRQLYEINDDPKRKEFLDDLFSFMQKRGTPINRLPIMAKSVLDLYELYNLVIARGGLVDVINKKLWQEIIKGLHLPSSITSAAFTLRTQYMKYLYPYECEKKNLSTPAELQAAIDGNR, GGLPIVGDIFRFLDNGRTGLYENYKEFSTELNMTRESNGVKVTINDVISDGRTLSITYSLESEQDLGDDPIILGGLDIMDAHGSSGSGKMTKVTEKKYVGMVTTTHHDSNKKDKVNFRWNIEGIEIPDRKKSIQGHWNFALTVKSMDSKERTIGGSSEKEGIKANMEKVAMSPVSFILYYNQEVSKGARKEWDSVDVELTVKDDLGNDYSGEGNGGSGNDPYNIRWSATFQKLNENATKLIVTPRVHLRVHTPENHGGVEYVNGKEKKIEVPNKEAKKKDIVLDDIVIDLKK, MSLSKELAVTPKQSLEAVVSYFRSAHKEPDSAVRAIHHQPASEGEFSEMPAAVDSRLRAALAKRGIERLYTHQADAFDQIQAGKHVVIVTPTASGKTLCYNLPVLNLLLRDEGARAMYLFPTKALAEDQLHEFQGAVEEMGSEIRAFTYDGDTPQDARRAIRSRANVVLTNPDMLHSGILPHHTRWARYFENLRYIVIDELHYYRGVYGSHLANLLRRLSRICEFYNSKPQFICCSATIANPKELAEALTGEPFELVERNGAPRGEKFFIFYNPPVVNRQLGIRRSYIAETRRMALKFIENNLQTLVFANNRLATEVLVTYLKDACDRGPIPSETVRGYRGGYLPRERREIEQSLRAGKIRAVVATNALELGIDIGSLDAVVMAGYPGTIASSWQRAGRAGRRQSTSAAVMVASSAPLDQYIVEHPDYFFGRSPEHAYINPENLEIFLAHLKCAAFELPLRDDEKFGRHDLAEICRYLEEAGFLHHSAAAWHWTSDTYPADATSLRSVTSDNFVVVDITGEAKVIAEVSFPTALTTLHEKAIYLHEARQFHVERFDYDQRKAYVKSVDCDYYTDAIDYTQVKVLEEMEGEPQNGARRLHGDVRVTRQIVGFKKIKFYTMENVGAGKLNMPEQEMHTTAFWLHFPAAFLARFAEFTPTEKQSGISGLGNALRTVASLLLMCDPRDLGVALSEEIAGGLEAFEPNLYLYDNYPGGIGQSGPLYRLAPQLLRQTAGLLAACACEAGCPSCVGPSGETGERGKLVAARILAELMGTAEQITAEGHHHHHH, MSLKLTRLSLWHIPLTSHETYYMAGGKTCDTTMTTLIRLDTDSGLSGWGEVCPIPHYLPAYADGVAPALTELAPIILGADPLGAEALMERCNAYLLGHDYAKSALDIALWDITARAAGLPLHALLGGRAMADMPLYHSITCVAPDEMARIARDAQAQGMTQFQVKLGADGDWQADVARLSHVREAVGPGPLVYGDWNCGSDSLTASRVGRAVAHLDVMLEQPCRTIQECAAVRDATGLPMKLDETAHDIPSLLDGHRRGCMDAVALKLSKFGGLSATRRARDLCLALGTRMCIEDTWGSDVTTAALLHLAAATPARGLMNTCDLSHYVGPRLAPDGPTRHMGRIAPPEGPGLGITPDMDVLGTPQLILDEGHHHHHH, AIAQSRKQLPITNAVIHPVVLLGIVDHYNRACKNTRKRAVGILLGTIDRRGHAEVLNSFAVPFEEDERNPTVFFFDHDYVENMAAMFRKVTARERIIGWYSTGPQIRPADMGVHEIVQGFCSSGHALYVICQVDPKETGLPTEAYVSLEEDSVALEGSAPGQPRRIFEHVPNSIGALEAEEVGTEHLLRDVRNWSVSTLTGEVRAKLDALQSLRARLENIRRYLEEVASGNLPLHQEILHALQLVLKGLPRNAASSELTQAFAVCSNEQTLLIYVATLLRSVLVLHDLVNNKTELLETERKMEVAFSNATTAMDAPGSPTVADSL, MNEQPNNENITQSASRDLQIIEDDAFSYEGYQVVRGEFFAHTYEPSFTFNANKVSVNTACIKKLPQTDFVQILVNPDEKKLAVRPCQEDEKDSFRWCSATKKRSPRQITCRIFFAKVISLMEWNPSYRYKLLGKLIRSDNELLFVFDLTTPEIYVRAEKEDGKIKTSRTPTYPAEWQNQFGVPVEEHQSNLQINMFDGYAVFGISENTQPSEEAQNTSVPPKEETHYEQSTLFPADPMHLEHHHHHH, MGHHHHHHGSSSCAVSGASGCLPPARSRIFKIIVIGDSNVGKTCLTYRFCAGRFPDRTEATIGVDFRERAVDIDGERIKIQLWDTAGQERFRKSMVQHYYRNVHAVVFVYDMTNMASFHSLPAWIEECKQHLLANDIPRILVGNKCDLRSAIQVPTDLAQKFADTHSMPLFETSAKNPNDNDHVEAIFMTLAHKLKSH
